Biological target: human complement C1 esterase inhibitor (human) (UniProt P05155)
Chain of UniProt P05155 (P05155 23-500): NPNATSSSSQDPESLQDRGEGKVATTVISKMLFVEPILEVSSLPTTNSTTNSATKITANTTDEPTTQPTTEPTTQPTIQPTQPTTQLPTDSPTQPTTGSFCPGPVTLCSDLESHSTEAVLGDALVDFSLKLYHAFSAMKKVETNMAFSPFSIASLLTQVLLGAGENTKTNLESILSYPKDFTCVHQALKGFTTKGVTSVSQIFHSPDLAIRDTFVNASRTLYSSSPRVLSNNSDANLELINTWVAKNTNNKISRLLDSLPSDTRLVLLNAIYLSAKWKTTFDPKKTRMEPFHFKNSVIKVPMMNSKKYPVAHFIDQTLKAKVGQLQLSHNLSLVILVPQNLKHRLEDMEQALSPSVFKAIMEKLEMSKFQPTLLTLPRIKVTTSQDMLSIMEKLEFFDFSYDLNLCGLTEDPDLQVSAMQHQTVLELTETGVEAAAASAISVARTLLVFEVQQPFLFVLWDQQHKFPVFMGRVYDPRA

percentage of dead E. coli BL21 (Live/Dead staining) after antibody 2E4 and human complement plasma treated with OSCS (25.5% without GAG, 26.5% with CSA): 8%
Substance: Activated C1s (enzyme)

Reference: article PMC3471833
